Reference: patent US20060153844A1, “Methods to trigger, maintain and manipulate immune responses by targeted administration of biological response modifiers into lymphoid organs” (priority 2004, published 2006)

Test system: PLA2-specific IgG2a and IgG1 antibodies
Experiment: anti-PLA2 IgG2a, IgG1 and IgE in sera after intralymphatic PLA2 plus TLR ligand
Assay type: in vivo, CBA/J mice
Procedure: The compounds were mixed within an hour before injection into the inguinal lymph node.
The sera were obtained over 13 weeks and analyzed by ELISA for anti-PLA2 IgG2a (FIG. 10A) and IgG1 (FIG. 10B). The ratio of IgG2a to IgG1 titers was calculated as a measure for Th1/Th2 immune response balance (FIG. 10C). […] Pre-immunization levels of anti-PLA2 antibodies were measured on sera from five mice taken the day before first injection.

B1: flagellin: flagellin, S. thyphimurium, TLR 5 ligand (protein, UniProt P06179 2-495, looked up)
Flagellin: AQVINTNSLSLLTQNNLNKSQSALGTAIERLSSGLRINSAKDDAAGQAIANRFTANIKGLTQASRNANDGISIAQTTEGALNEINNNLQRVRELAVQSANSTNSQSDLDSIQAEITQRLNEIDRVSGQTQFNGVKVLAQDNTLTIQVGANDGETIDIDLKQINSQTLGLDTLNVQQKYKVSDTAATVTGYADTTIALDNSTFKASATGLGGTDQKIDGDLKFDDTTGKYYAKVTVTGGTGKDGYYEVSVDKTNGEVTLAGGATSPLTGGLPATATEDVKNVQVANADLTEAKAALTAAGVTGTASVVKMSYTDNNGKTIDGGLAVKVGDDYYSATQNKDGSISINTTKYTADDGTSKTALNKLGGADGKTEVVSIGGKTYAASKAEGHNFKAQPDLAEAAATTTENPLQKIDAALAQVDTLRSDLGAVQNRFNSAITNLGNTVNNLTSARSRIEDSDYATEVSNMSRAQILQQAGTSVLAQANQVPQNVLSLLR
- kinetics of the antibody production (time of maximum titers) (i.ln. with 0.1 μg PLA2, sera over 13 weeks): peak titers were delayed
- anti-PLA2 antibody isotypes induced (IgG2a, IgG1) (i.ln. with 0.1 μg PLA2, three injections): induced both IgG2a and IgG1
